The values that follow come from PMC5497592 (Biochemistry, 2011).

This data set concerns the molecule itself. As to the kind of experiment: cross-linking.

B1: HpUreI, the urea channel from Helicobacter pylori (natural protein)
chain: MLGLVLLYVGIVLISNGICGLTKVDPKSTAVMNFFVGGLSIICNIVVITYSALHPTAPVEGAEDIAQVSHHLTSFYGPATGLLFGFTYLYAAINHTFGLDWRPYSWYSLFVAINTIPAAILSHYSDMLDDHKVLGITEGDWWAIIWLAWGVLWLTAFIENILKIPLGKFTPWLAIIEGILTAWIPAWLLFIQHWV
On to B1, for which the “stoichiometry N” value was found to be 3.
